Assay results: US20180155451A1 (published 2018)

T1: FcγRIIa H (human, UniProt P12318 34-217)
T1 construct: extracellular domain; also called FcγRIIa type H; 2aH
T1 sequence (looked up): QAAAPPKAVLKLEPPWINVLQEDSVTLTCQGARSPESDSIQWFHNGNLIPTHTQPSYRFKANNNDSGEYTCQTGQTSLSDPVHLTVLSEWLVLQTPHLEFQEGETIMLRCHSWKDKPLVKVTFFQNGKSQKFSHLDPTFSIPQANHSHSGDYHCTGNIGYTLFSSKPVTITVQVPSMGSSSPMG

T2: FcγRIIb (human, UniProt P31994 43-217)
T2 construct: extracellular domain; also called 2b
T2 sequence (looked up): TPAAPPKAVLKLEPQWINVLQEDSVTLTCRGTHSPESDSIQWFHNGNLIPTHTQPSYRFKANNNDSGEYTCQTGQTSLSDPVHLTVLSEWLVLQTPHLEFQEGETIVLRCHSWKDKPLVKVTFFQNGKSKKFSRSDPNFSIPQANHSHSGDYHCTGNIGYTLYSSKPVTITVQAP

B1: GpH7-A5/GpH7-B3 variant K326_02A/GpL16-k0 (antibody, human IgG1, kappa)
heavy 1: not shown
heavy 2: not shown
light: DIVMTQSPLSLPVTPGEPASISCQASESLVHSNRNTYLHWYLQKPGQSPQLLIYKVSNRFSGVPDRFSGSGSGTDFTLKISRVEAEDVGVYYCSQNTHVPPTFGQGTKVEIERTVAAPSVFIFPPSDEQLKSGTASVVCLLNNFYPREAKVQWKVDNALQSGNSQESVTEQDSKDSTYSLSSTLTLSKADYEKHKVYACEVTHQGLSSPVTKSFNRGEC
notes: heterodimerized IgG1, mutation in one H chain only; also called He Ab
B2: GpH7-A5/GpH7-B3 variant V266_19Q/GpL16-k0 (antibody, human IgG1, kappa)
heavy 1: not shown
heavy 2: not shown
light: B1 light
notes: as for B1
B3: GpH7-A5/GpH7-B3 variant Y300_10E/GpL16-k0 (antibody, human IgG1, kappa)
heavy 1: not shown
heavy 2: not shown
light: B1 light
notes: as for B1
B4: GpH7-A5/GpH7-B3 variant V266_16H/GpL16-k0 (antibody, human IgG1, kappa)
heavy 1: not shown
heavy 2: not shown
light: B1 light
notes: as for B1
B5: GpH7-A5/GpH7-B3 variant S267_19Q/GpL16-k0 (antibody, human IgG1, kappa)
heavy 1: not shown
heavy 2: not shown
light: B1 light
notes: as for B1
B6: GpH7-A5/GpH7-B3 variant S267_04F/GpL16-k0 (antibody, human IgG1, kappa)
heavy 1: not shown
heavy 2: not shown
light: B1 light
notes: as for B1
B7: GpH7-A5/GpH7-B3 variant S267_02A/GpL16-k0 (antibody, human IgG1, kappa)
heavy 1: not shown
heavy 2: not shown
light: B1 light
notes: as for B1
B8: GpH7-A5/GpH7-B3 variant S298_08L/GpL16-k0 (antibody, human IgG1, kappa)
heavy 1: not shown
heavy 2: not shown
light: B1 light
notes: as for B1
B9: GpH7-A5/GpH7-B3 variant S267_08L/GpL16-k0 (antibody, human IgG1, kappa)
heavy 1: not shown
heavy 2: not shown
light: B1 light
notes: as for B1
B10: GpH7-A5/GpH7-B3 variant S267_06M/GpL16-k0 (antibody, human IgG1, kappa)
heavy 1: not shown
heavy 2: not shown
light: B1 light
notes: as for B1
B11: GpH7-A5/GpH7-B3 variant S267_09D/GpL16-k0 (antibody, human IgG1, kappa)
heavy 1: not shown
heavy 2: not shown
light: B1 light
notes: as for B1
B12: GpH7-A5/GpH7-B3 variant S267_20W/GpL16-k0 (antibody, human IgG1, kappa)
heavy 1: not shown
heavy 2: not shown
light: B1 light
notes: as for B1
B13: GpH7-A5/GpH7-B3 variant S267_05P/GpL16-k0 (antibody, human IgG1, kappa)
heavy 1: not shown
heavy 2: not shown
light: B1 light
notes: as for B1
B14: GpH7-A5/GpH7-B3 variant K326_04F/GpL16-k0 (antibody, human IgG1, kappa)
heavy 1: not shown
heavy 2: not shown
light: B1 light
notes: as for B1
B15: GpH7-A5/GpH7-B3 variant P271_01G/GpL16-k0 (antibody, human IgG1, kappa)
heavy 1: not shown
heavy 2: not shown
light: B1 light
notes: as for B1
B16: GpH7-A5/GpH7-B3 variant K326_05P/GpL16-k0 (antibody, human IgG1, kappa)
heavy 1: not shown
heavy 2: not shown
light: B1 light
notes: as for B1
B17: GpH7-A5/GpH7-B3 variant P271_14T/GpL16-k0 (antibody, human IgG1, kappa)
heavy 1: not shown
heavy 2: not shown
light: B1 light
notes: as for B1
B18: GpH7-A5/GpH7-B3 variant P271_10E/GpL16-k0 (antibody, human IgG1, kappa)
heavy 1: not shown
heavy 2: not shown
light: B1 light
notes: as for B1
B19: GpH7-A5/GpH7-B3 variant S267_10E/GpL16-k0 (antibody, human IgG1, kappa)
heavy 1: not shown
heavy 2: not shown
light: B1 light
notes: as for B1

What follows are binders tested against T1, FcγRIIa H (assay: SPR; He/Con_2aH divided by He/Con_2b (FcγRIIb)).
Method: The heterodimerized antibodies He Abs in which one of the H chains was introduced with an alteration were assayed for their binding activities to each activating FcγR and inhibitory FcγR according to the method described in Example 4. […] The activating FcγRs in FIGS. 26, 27, 28, and 29 are FcγRIa, FcγRIIa (R), FcγRIIa (H), and FcγRIIIa, respectively.
Analysis of interaction between objective antibody and the FcγR was carried out using Biacore T100 (GE Healthcare). HBS-EP+ (GE Healthcare) was used as the running buffer, and the measurement temperature was set to 25° C. Chips produced by immobilizing the antigen peptide by the amine coupling method to a Series S Sencor Chip CM5 (GE Healthcare), or alternatively, chips produced by allowing preliminarily biotinylated antigen peptides to interact with and immobilize onto a Series S Sensor Chip SA (certified) (GE Healthcare) were used. Antibodies of interest were captured onto an antigen peptide-immobilized chip, and allowed to interact to each FcγR diluted with running buffer. To regenerate and repeatedly use the chip, the antibodies captured on the chip were washed off by reacting 10 mM glycine-HCl, pH 1.5.

Binder	He_2aH/2b (IIaH/IIb)
B1	0.76 ratio
B2	0.52 ratio
B3	0.73 ratio
B4	0.37 ratio
B5	0.28 ratio
B6	0.47 ratio
B7	0.49 ratio
B8	0.78 ratio
B9	0.27 ratio
B10	0.16 ratio
B11	0.34 ratio
B12	0.66 ratio
B13	0.8 ratio
B14	0.63 ratio
B15	0.55 ratio
B16	0.79 ratio
B17	0.64 ratio
B18	0.58 ratio
B19	0.27 ratio

Each binder was assayed against T1, FcγRIIa H (assay: SPR (Biacore), relative binding vs GpH7-A5/GpH7-B3/GpL16-k0).

Binder	He/Con_2aH
B1	106 % of control He Ab (=100)
B2	46.4 % of control He Ab (=100)
B3	97.2 % of control He Ab (=100)
B4	21.2 % of control He Ab (=100)
B5	61.3 % of control He Ab (=100)
B6	22.7 % of control He Ab (=100)
B7	120 % of control He Ab (=100)
B8	85 % of control He Ab (=100)
B9	29 % of control He Ab (=100)
B10	34.3 % of control He Ab (=100)
B11	105 % of control He Ab (=100)
B12	37.9 % of control He Ab (=100)
B13	25.1 % of control He Ab (=100)
B14	97 % of control He Ab (=100)
B15	107 % of control He Ab (=100)
B16	98.8 % of control He Ab (=100)
B17	60.9 % of control He Ab (=100)
B18	63.1 % of control He Ab (=100)
B19	102 % of control He Ab (=100)

Each binder was assayed against T2, FcγRIIb in the same assay as above.

Binder	He/Con_2b
B1	139 % of control He Ab (=100)
B2	89.2 % of control He Ab (=100)
B3	134 % of control He Ab (=100)
B4	57.2 % of control He Ab (=100)
B5	218 % of control He Ab (=100)
B6	48 % of control He Ab (=100)
B7	243 % of control He Ab (=100)
B8	108 % of control He Ab (=100)
B9	109 % of control He Ab (=100)
B10	210 % of control He Ab (=100)
B11	310 % of control He Ab (=100)
B12	57.2 % of control He Ab (=100)
B13	31.5 % of control He Ab (=100)
B14	155 % of control He Ab (=100)
B15	193 % of control He Ab (=100)
B16	126 % of control He Ab (=100)
B17	95.4 % of control He Ab (=100)
B18	109 % of control He Ab (=100)
B19	379 % of control He Ab (=100)
